Where no end group is shown, it is not given here. [ ]: non-standard residue; d: D form.
Target: Toll-like receptor 4 (TLR4) on monocyte-derived iDC
Assay: cell-based or functional assay

B1: All-D-TTNYT (RAP-103) (peptide)
peptide: [dT][dT][dN][dY][dT]
With B1 the “IC50 for inhibition of LPS (100 ng/mL) induced TNF-α secretion in monocyte-derived iDC (ELISA of supernatants, FIG. 5)” value was ~0.1 pM.

Source: patent US20140323393A1 (CREATIVE BIO PEPTIDES, published 2014)
